Reference: IntAct's records for PubMed 29892012

B1: Genetic suppressor element 1 (Homo sapiens), Q14687 (parent)
chain: MKGMSHEPKSPSLGMLSTATRTTATVNPLTPSPLNGALVPSGSPATSSALSAQAAPSSSFAAALRKLAKQAEEPRGSSLSSESSPVSSPATNHSSPASTPKRVPMGPIIVPPGGHSVPSTPPVVTIAPTKTVNGVWRSESRQDAGSRSSSGGRERLIVEPPLPQEKAGGPAIPSHLLSTPYPFGLSPSSVVQDSRFPPLNLQRPVHHVVPPSTVTEDYLRSFRPYHTTDDLRMSSLPPLGLDPATAAAYYHPSYLAPHPFPHPAFRMDDSYCLSALRSPFYPIPTPGSLPPLHPSAMHLHLSGVRYPPELSHSSLAALHSERMSGLSAERLQMDEELRREREREREREREREADREREKEREREREKEREQEKEREREKERERELERQREQRAREKELLAAKALEPSFLPVAELHGLRGHATEERGKPSEQLTPTRAEKLKDAGLQAPKPVQHPLHPVPTPHHTVPSLISNHGIFSLPSSSAATALLIQRTNEEEKWLARQRRLRQEKEDRQSQVSEFRQQVLEQHLDMGRPPVPAEAEHRPESTTRPGPNRHEPGGRDPPQHFGGPPPLISPKPQLHAAPTALWNPVSLMDNTLETRRAESHSLHSHPAAFEPSRQAAVPLVKVERVFCPEKAEEGPRKREPAPLDKYQPPPPPPREGGSLEHQPFLPGPGPFLAELEKSTQTILGQQRASLPQAATFGELSGPLKPGSPYRPPVPRAPDPAYIYDEFLQQRRRLVSKLDLEERRRREAQEKGYYYDLDDSYDESDEEEVRAHLRCVAEQPPLKLDTSSEKLEFLQLFGLTTQQQKEELVAQKRRKRRRMLRERSPSPPTIQSKRQTPSPRLALSTRYSPDEMNNSPNFEEKKKFLTIFNLTHISAEKRKDKERLVEMLRAMKQKALSAAVADSLTNSPRDSPAVSLSEPATQQASLDVEKPVGVAASLSDIPKAAEPGKLEQVRPQELSRVQELAPASGEKARLSEAPGGKKSLSMLHYIRGAAPKDIPVPLSHSTNGKSKPWEPFVAEEFAHQFHESVLQSTQKALQKHKGSVAVLSAEQNHKVDTSVHYNIPELQSSSRAPPPQHNGQQEPPTARKGPPTQELDRDSEEEEEEDDEDGEDEEEVPKRKWQGIEAVFEAYQEHIEEQNLERQVLQTQCRRLEARHYSLSLTAEQLSHSVAELRSQKQKMVSERERLQAELDHLRKCLALPAMHWPRGYLKGYPR
partner: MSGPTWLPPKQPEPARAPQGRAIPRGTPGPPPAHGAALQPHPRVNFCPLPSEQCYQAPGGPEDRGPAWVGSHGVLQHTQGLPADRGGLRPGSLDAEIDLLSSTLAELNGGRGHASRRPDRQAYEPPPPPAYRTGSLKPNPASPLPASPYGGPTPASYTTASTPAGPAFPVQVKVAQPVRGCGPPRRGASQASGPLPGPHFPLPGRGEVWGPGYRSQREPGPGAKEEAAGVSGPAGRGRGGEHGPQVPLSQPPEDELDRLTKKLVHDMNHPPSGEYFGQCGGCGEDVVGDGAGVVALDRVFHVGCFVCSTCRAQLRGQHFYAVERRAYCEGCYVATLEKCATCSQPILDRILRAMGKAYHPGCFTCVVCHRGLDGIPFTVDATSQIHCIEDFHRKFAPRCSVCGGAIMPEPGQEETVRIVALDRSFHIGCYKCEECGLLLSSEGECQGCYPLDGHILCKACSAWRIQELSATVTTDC
B2: Cysteine/serine-rich nuclear protein 2 (Homo sapiens), Q9H175 (parent)
chain: MDAFTGSGLKRKFDDVDVGSSVSNSDDEISSSDSADSCDSLNPPTTASFTPTSILKRQKQLRRKNVRFDQVTVYYFARRQGFTSVPSQGGSSLGMAQRHNSVRSYTLCEFAQEQEVNHREILREHLKEEKLHAKKMKLTKNGTVESVEADGLTLDDVSDEDIDVENVEVDDYFFLQPLPTKRRRALLRASGVHRIDAEEKQELRAIRLSREECGCDCRLYCDPEACACSQAGIKCQVDRMSFPCGCSRDGCGNMAGRIEFNPIRVRTHYLHTIMKLELESKRQVSRPAAPDEEPSPTASCSLTGAQGSETQDFQEFIAENETAVMHLQSAEELERLKAEEDSSGSSASLDSSIESLGVCILEEPLAVPEELCPGLTAPILIQAQLPPGSSVLCFTENSDHPTASTVNSPSYLNSGPLVYYQVEQRPVLGVKGEPGTEEGSASFPKEKDLNVFSLPVTSLVACSSTDPAALCKSEVGKTPTLEALLPEDCNPEEPENEDFHPSWSPSSLPFRTDNEEGCGMVKTSQQNEDRPPEDSSLELPLAV
B3: TBC1 domain family member 22B (Homo sapiens), Q9NU19 (parent)
chain: MAAENSKQFWKRSAKLPGSIQPVYGAQHPPLDPRLTKNFIKERSKVNTVPLKNKKASSFHEFARNTSDAWDIGDDEEEDFSSPSFQTLNSKVALATAAQVLENHSKLRVKPERSQSTTSDVPANYKVIKSSSDAQLSRNSSDTCLRNPLHKQQSLPLRPIIPLVARISDQNASGAPPMTVREKTRLEKFRQLLSSQNTDLDELRKCSWPGVPREVRPITWRLLSGYLPANTERRKLTLQRKREEYFGFIEQYYDSRNEEHHQDTYRQIHIDIPRTNPLIPLFQQPLVQEIFERILFIWAIRHPASGYVQGINDLVTPFFVVFLSEYVEEDVENFDVTNLSQDMLRSIEADSFWCMSKLLDGIQDNYTFAQPGIQKKVKALEELVSRIDEQVHNHFRRYEVEYLQFAFRWMNNLLMRELPLRCTIRLWDTYQSEPEGFSHFHLYVCAAFLIKWRKEILDEEDFQGLLMLLQNLPTIHWGNEEIGLLLAEAYRLKYMFADAPNHYRR
partner: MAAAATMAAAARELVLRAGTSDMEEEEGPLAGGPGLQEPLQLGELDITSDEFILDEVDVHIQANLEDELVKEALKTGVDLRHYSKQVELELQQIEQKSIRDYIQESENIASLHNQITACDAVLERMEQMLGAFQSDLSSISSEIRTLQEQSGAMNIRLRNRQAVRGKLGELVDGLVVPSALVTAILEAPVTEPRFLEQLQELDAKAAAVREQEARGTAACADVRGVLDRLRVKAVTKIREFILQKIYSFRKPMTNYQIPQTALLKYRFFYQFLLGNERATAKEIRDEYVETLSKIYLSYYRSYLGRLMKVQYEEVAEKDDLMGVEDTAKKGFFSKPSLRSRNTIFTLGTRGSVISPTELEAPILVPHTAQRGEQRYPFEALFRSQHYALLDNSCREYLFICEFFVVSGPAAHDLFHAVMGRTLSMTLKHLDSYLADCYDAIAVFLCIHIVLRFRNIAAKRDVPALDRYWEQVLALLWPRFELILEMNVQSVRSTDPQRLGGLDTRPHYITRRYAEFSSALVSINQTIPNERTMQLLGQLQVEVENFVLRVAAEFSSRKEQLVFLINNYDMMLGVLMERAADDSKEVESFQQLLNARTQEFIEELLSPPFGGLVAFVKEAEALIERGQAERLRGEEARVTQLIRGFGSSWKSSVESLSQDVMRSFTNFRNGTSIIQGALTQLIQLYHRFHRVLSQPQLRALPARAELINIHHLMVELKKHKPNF
B4: Protein VAC14 homolog (Homo sapiens), Q08AM6 (parent)
chain: MNPEKDFAPLTPNIVRALNDKLYEKRKVAALEIEKLVREFVAQNNTVQIKHVIQTLSQEFALSQHPHSRKGGLIGLAACSIALGKDSGLYLKELIEPVLTCFNDADSRLRYYACEALYNIVKVARGAVLPHFNVLFDGLSKLAADPDPNVKSGSELLDRLLKDIVTESNKFDLVSFIPLLRERIYSNNQYARQFIISWILVLESVPDINLLDYLPEILDGLFQILGDNGKEIRKMCEVVLGEFLKEIKKNPSSVKFAEMANILVIHCQTTDDLIQLTAMCWMREFIQLAGRVMLPYSSGILTAVLPCLAYDDRKKSIKEVANVCNQSLMKLVTPEDDELDELRPGQRQAEPTPDDALPKQEGTASGGPDGSCDSSFSSGISVFTAASTERAPVTLHLDGIVQVLNCHLSDTAIGMMTRIAVLKWLYHLYIKTPRKMFRHTDSLFPILLQTLSDESDEVILKDLEVLAEIASSPAGQTDDPGPLDGPDLQASHSELQVPTPGRAGLLNTSGTKGLECSPSTPTMNSYFYKFMINLLKRFSSERKLLEVRGPFIIRQLCLLLNAENIFHSMADILLREEDLKFASTMVHALNTILLTSTELFQLRNQLKDLKTLESQNLFCCLYRSWCHNPVTTVSLCFLTQNYRHAYDLIQKFGDLEVTVDFLAEVDKLVQLIECPIFTYLRLQLLDVKNNPYLIKALYGLLMLLPQSSAFQLLSHRLQCVPNPELLQTEDSLKAAPKSQKADSPSIDYAELLQHFEKVQNKHLEVRHQRSGRGDHLDRRVVL
partner: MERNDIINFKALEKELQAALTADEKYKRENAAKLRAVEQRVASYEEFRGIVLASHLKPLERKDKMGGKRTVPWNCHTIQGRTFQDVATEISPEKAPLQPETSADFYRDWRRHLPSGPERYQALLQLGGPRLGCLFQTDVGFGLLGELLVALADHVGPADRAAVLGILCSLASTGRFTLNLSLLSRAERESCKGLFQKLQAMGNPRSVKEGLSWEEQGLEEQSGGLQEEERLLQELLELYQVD

Variants of: B1
Settings: with trip6_human TRIP6, Q15654

effect of a mutation on the interaction	Variant
with no effect	E368K

Variants of: B1
Settings: with trip6_human TRIP6, Q15654
Remark: another data set of the same source

effect of a mutation on the interaction	Variant
with no effect	R503Q

Variants of: B2
Settings: with pp1g_human PPP1CC

effect of a mutation on the interaction	Variant
with no effect	Q382E

Variants of: B3
Settings: with vps52_human VPS52, Q8N1B4

effect of a mutation on the interaction	Variant
disrupting interaction strength	A349T

Variants of: B4
Settings: with daa19_human DNAAF19, Q8IW40

effect of a mutation on the interaction	Variant
with no effect	A127S
